According to US20250340591A1, “COMPOSITION FOR PREVENTING OR TREATING INFLAMMATORY BOWEL DISEASE CONTAINING NOVEL COMPOUND” (ANYGEN CO., LTD., priority 2021, published 2025):
Square brackets hold non-standard residues; d marks the D form. Ends that are not written are not given here. * marks the point of attachment. DAMP‑2 = 1,3-bis(2-cyclohexylethyl) substitution on the histidine imidazole ring (1,3-bis(2-cyclohexylethyl)-2,3-dihydro-1H-imidazol-4-yl side chain), C1=C(*)N(CCC2CCCCC2)CN1CCC1CCCCC1; 2‑(4-tert-butyl)phenyl = 2-(4-tert-butylphenyl) substituent on the histidine imidazole (2-(4-(tert-butyl)phenyl)-1H-imidazol-4-yl), CC(C)(C)c1ccc(*)cc1; DAMP‑5 = 3-(2-cyclohexylethyl) substitution on the histidine imidazole ring (3-(2-cyclohexylethyl)-2,3-dihydro-1H-imidazol-4-yl side chain); DAMP‑3 = 1,3-diphenethyl substitution on the histidine imidazole ring (1,3-diphenethyl-2,3-dihydro-1H-imidazol-4-yl side chain); thiophene = 2-(thiophen-2-yl) substituent on the histidine imidazole (2-(thiophen-2-yl)-1H-imidazol-4-yl), c1csc(*)c1; 4‑methoxybenzhydryl = (4-methoxyphenyl)(phenyl)methyl on the His imidazole, COc1ccc(C(c2ccccc2)*)cc1; 1,2‑diphenyl = 1,2-diphenyl substituents on the histidine imidazole (1,2-diphenyl-1H-imidazol-4-yl); 1‑phenyl = 1-phenyl substituent on the histidine imidazole (1-phenyl-1H-imidazol-4-yl), c1ccc(*)cc1; 2‑phenyl = 2-phenyl substituent on the histidine imidazole (2-phenyl-1H-imidazol-4-yl), c1ccc(*)cc1; 4‑hydroxybenzhydryl = (4-hydroxyphenyl)(phenyl)methyl on the His imidazole, Oc1ccc(C(c2ccccc2)*)cc1; Tyr(3,5-(NO2)2) = N[C@@H](Cc1cc([N+](=O)[O-])c(O)c([N+](=O)[O-])c1)C(=O)O; Tyr(3-NO2) = N[C@@H](Cc1ccc(O)c([N+](=O)[O-])c1)C(=O)O; 4‑methoxylbenzhydryl = COc1ccc(C(c2ccccc2)*)cc1; Biotin = O=C1N[C@H]2[C@H](CS[C@H]2CCCCC(=O)*)N1; dPhe(4-CF3) = N[C@H](Cc1ccc(C(F)(F)F)cc1)C(=O)O; 1‑(4-tert-butyl)phenyl = CC(C)(C)c1ccc(*)cc1; Tyr(3-Cl) = N[C@@H](Cc1ccc(O)c(Cl)c1)C(=O)O; Tyr(3-NH2) = Nc1cc(C[C@H](N)C(=O)O)ccc1O; dPhe(4-Cl) = N[C@H](Cc1ccc(Cl)cc1)C(=O)O; dPhe(4-Me) = Cc1ccc(C[C@@H](N)C(=O)O)cc1; Mtt = Cc1ccc(C(c2ccccc2)(c2ccccc2)*)cc1; Trt = c1ccc(C(c2ccccc2)(c2ccccc2)*)cc1; Benzhydryl = c1ccc(C(c2ccccc2)*)cc1; 2‑cyclohexylethyl = C1CCC(CC*)CC1; Tos = Cc1ccc(S(=O)(=O)*)cc1; Octanoyl = CCCCCCCC(=O)*

T1: GPR39 (G protein coupled receptor 39) (UniProt O43194 1-453, limits assumed)
T1 sequence (looked up): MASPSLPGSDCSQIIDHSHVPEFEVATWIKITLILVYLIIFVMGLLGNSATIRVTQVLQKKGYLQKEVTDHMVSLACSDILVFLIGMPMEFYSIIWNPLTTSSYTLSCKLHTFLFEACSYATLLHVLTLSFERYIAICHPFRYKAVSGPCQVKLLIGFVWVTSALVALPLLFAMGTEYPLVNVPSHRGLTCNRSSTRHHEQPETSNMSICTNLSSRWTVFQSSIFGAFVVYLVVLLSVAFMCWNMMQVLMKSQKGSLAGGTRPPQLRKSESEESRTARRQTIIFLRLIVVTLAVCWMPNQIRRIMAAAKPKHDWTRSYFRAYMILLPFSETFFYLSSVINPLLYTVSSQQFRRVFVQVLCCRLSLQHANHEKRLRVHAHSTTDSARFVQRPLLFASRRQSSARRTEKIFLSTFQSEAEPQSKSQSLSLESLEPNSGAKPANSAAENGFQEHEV


Target: T1, GPR39 (G protein coupled receptor 39)
Assay: cell-based or functional assay

| Binder | EC50; SRE-luciferase reporter | ECmax; SRE-luciferase reporter |
| --- | --- | --- |
| H(Tos)K(Octanoyl)[dPhe(4-Me)]Y-OH [HKFY-75] | 0.001 µM | 15.9 -fold induction over basal |
| [dH](Benzhydryl)K(Octanoyl)[dPhe(4-Me)]Y-OH [HKFY-62] | 0.83 µM | 28.1 -fold induction over basal |
| H(Benzhydryl)K(Octanoyl)[dPhe(4-Me)][Tyr(3-NO2)]-OH [HKFY-68] | 0.013 µM | 10.8 -fold induction over basal |
| H(1,2‑diphenyl)K(Octanoyl)[dPhe(4-Me)]Y-OH [HKFY-59] | 0.55 µM | 6.76 -fold induction over basal |
| H(Benzhydryl)K(Octanoyl)[dPhe(4-Me)][Tyr(3,5-(NO2)2)] [HKFY-69] | 0.015 µM | 12.2 -fold induction over basal |
| H(Benzhydryl)K(Octanoyl)[dPhe(4-Me)][Tyr(3-Cl)]-OH [HKFY-67] | 0.043 µM | 10.2 -fold induction over basal |
| H(Trt)K(Octanoyl)LY-OH [HKFY-51] | 0.12 µM | 14.4 -fold induction over basal |
| [dH](Trt)K(Octanoyl)[dPhe(4-Cl)][dY] [HKFY-14] | 0.02 µM | 20.9 -fold induction over basal |
| H(thiophene)K(Octanoyl)[dPhe(4-Me)]Y-OH [HKFY-63] | 0.006 µM | 13.5 -fold induction over basal |
| H(2‑(4-tert-butyl)phenyl)K(Octanoyl)[dPhe(4-Me)]Y-OH [HKFY-60] | 0.19 µM | 28.2 -fold induction over basal |
| H(1‑(4-tert-butyl)phenyl)K(Octanoyl)[dPhe(4-Me)]Y-OH [HKFY-61] | 0.02 µM | 9.88 -fold induction over basal |
| H(DAMP‑2)K(Octanoyl)FY [HKFY-8] | 33.6 µM | 17.3 -fold induction over basal |
| H(2‑phenylethyl)K(Octanoyl)FY-OH (not fully specified) [HKFY-9] | 42.7 µM | 21 -fold induction over basal |
| HK(Octanoyl)FY (not fully specified (residue 1)) [HKFY-17] | 8.12 µM | 20 -fold induction over basal |
| HK(Octanoyl)FY (not fully specified; also: His1 substituent: phenethyl or phenylpropyl) [HKFY-19] | 24.6 µM | 18 -fold induction over basal |
| H(Fm)K(Octanoyl)FY [HKFY-18] | 2.29 µM | 10 -fold induction over basal |
| Lys(Octanoyl)-Phe-Tyr [HKFY-54] | 25.9 µM | 7.8 -fold induction over basal |
| K(Octanoyl)H(Trt)FY [HKFY-55] | 2.49 µM | 16.8 -fold induction over basal |
| H(1‑phenyl)K(Octanoyl)[dPhe(4-Me)]Y-OH [HKFY-58] | 0.02 µM | 9.12 -fold induction over basal |
| H(Trt)K(Octanoyl)[dF]Y-OH (not fully specified; printed as His(trt)-Lys(caprylic)-d-Phe-Tyr) [HKFY-12] | 0.035 µM | 20.7 -fold induction over basal |
| H(Trt)[dK](Octanoyl)[dPhe(4-Cl)]Y [HKFY-16] | 0.24 µM | 27.9 -fold induction over basal |
| H(DAMP‑5)K(Octanoyl)FY [HKFY-7] | 1.56 µM | 16 -fold induction over basal |

| Binder | EC50; SRE-luciferase reporter | ECmax; SRE-luciferase reporter |
| --- | --- | --- |
| Biotin-H(Benzhydryl)K(Octanoyl)[dPhe(4-Me)]Y-OH [HKFY-72] | 0.011 µM | 10.4 -fold induction over basal |
| H(Trt)K(Octanoyl)[dPhe(4-Cl)][dY] [HKFY-15] | 0.098 µM | 24.7 -fold induction over basal |
| H(Benzhydryl)K(Octanoyl)[dPhe(4-Me)]Y-NH2 [HKFY-66] | 0.011 µM | 20.2 -fold induction over basal |
| H(Benzhydryl)K(Octanoyl)[dPhe(4-Me)][Tyr(3-NH2)]-OH [HKFY-70] | 0.02 µM | 10.1 -fold induction over basal |
| HK(Octanoyl)FY (not fully specified (residue 1)) [HKFY-10] | 46.5 µM | 14 -fold induction over basal |
| H(4‑methoxylbenzhydryl)K(Octanoyl)FY [HKFY-20] | 159 µM | 20.3 -fold induction over basal |
| H(Trt)K(Octanoyl)FY [HKFY-1] | 0.15 µM | 20.5 -fold induction over basal |
| H(Mtt)K(Octanoyl)FY [HKFY-5] | 1.84 µM | 16 -fold induction over basal |
| H(Trt)K(caproic)FYDQQARF (also: C-terminal Phe amide in IUPAC name, not in sequence formula) [HKFY-56] |  | 14.9 -fold induction over basal |
| H(Trt)GSK(Octanoyl)FY-OH [HKFY-53] | 0.34 µM | 8 -fold induction over basal |
| H(Trt)FYDQQARF (also: C-terminal Phe amide in IUPAC name, not in sequence formula) [HKFY-52] | 56.4 µM | 15.5 -fold induction over basal |
| His(Benzhydryl)-Lys(Octanoyl)-OH [HKFY-79] | 0.97 µM | 11.2 -fold induction over basal |
| H(4‑methoxybenzhydryl)K(Octanoyl)[dPhe(4-Me)]Y-OH [HKFY-64] | 0.007 µM | 16 -fold induction over basal |
| H(2‑cyclohexylethyl)K(Octanoyl)FY [HKFY-11] | 57.8 µM | 22 -fold induction over basal |
| H(2‑phenyl)K(Octanoyl)[dPhe(4-Me)]Y-OH [HKFY-57] | 0.26 µM | 8.5 -fold induction over basal |
| H(Trt)K(Octanoyl)[dPhe(4-CF3)]Y-OH [HKFY-76] | 0.007 µM | 14.2 -fold induction over basal |
| Biotin-H(Trt)K(Octanoyl)FY [HKFY-2] | 0.14 µM | 15 -fold induction over basal |
| H(Trt)K(Octanoyl)FS [HKFY-50] | 0.7 µM | 16.2 -fold induction over basal |
| H(DAMP‑3)K(Octanoyl)FY [HKFY-6] | 68.4 µM | 15 -fold induction over basal |
| H(Trt)K(Octanoyl)[dPhe(4-Cl)]Y [HKFY-13] | 0.014 µM | 25.7 -fold induction over basal |
| H(4‑hydroxybenzhydryl)K(Octanoyl)[dPhe(4-Me)]Y-OH [HKFY-65] | 0.003 µM | 18.3 -fold induction over basal |
